Laboratory results published in patent US7879859B2, “Diagnosis and treatment of type 2 diabetes and other disorders” (Merck Sharp & Dohme Corp., priority 2005, dated 2011).
Where “and” joins values, the source holds several entries; their conditions need not be identical. Equal values may be shown once. d = 2'-deoxy (DNA); r = 2'-OH (RNA)

What was measured:
isolated mouse islets = experiment: Glucose-stimulated insulin secretion (GSIS) in isolated mouse islets; assay type: cell-based; details: 10 nM Octreotide, FIG. 1
Procedure: Pancreatic islets of Langerhans were isolated from the pancreas of normal C57BL/6J mice (Jackson Laboratory, Maine) by collagenase digestion and discontinuous Ficoll gradient separation, a modification of the original method of Lacy and Kostianovsky (Lacy et al., Diabetes 16:35-39, 1967). The islets were cultured overnight in RPMI 1640 medium (11 mM glucose) before GSIS assay. To measure GSIS, islets were first preincubated for 30 minutes in the Krebs-Ringer bicarbonate (KRB) buffer with 2 mM glucose (in petri dishes). The KRB medium contains 143.5 mM Na^+, 5.8 mM K^+, 2.5 mM Ca^2+, 1.2 mM Mg^2+, 124.1 mM Cl^−, 1.2 mM PO4^3−, 1.2 mM […], 25 mM CO3^2−, 2 mg/ml bovine serum albumin (pH 7.4). The islets were then transferred to a 96-well plate (one islet/well) and incubated at 37° C. for 60 minutes in 200 μl of KRB buffer with 2 or 16 mM glucose, and other agents to be tested such as octreotide and a SST3 antagonist. (Zhou et al., J. Biol. Chem. 278:51316-51323, 2003.) Insulin was measured in aliquots of the incubation buffer by ELISA with a commercial kit (ALPCO Diagnostics, Windham, N.H.).

INS-1 (832/13) cells = experiment: GSIS assay after siRNA mediated gene knockdown; assay type: cell-based, rat; details: compared to random sequence siRNA, 48 hours after electroporation
Procedure: Three 21-mer siRNA oligos were designed against each candidate gene and used as a pool at the final concentration of 20 uM. The siRNA oligos were delivered to the cells by Nucleofector Device (Amaxa, Gaithersburg, Md.). The INS-1 (832/13) cells were trypsinized, centrifuged, and resuspended in 100 ul Nucleofector solution V (2.25×10^6 cells per reaction). Seven and a half microliters of pooled siRNA were then added to the cell suspension. The cells were electroporated with Amaxa Nucleofector Device program T21. After electroporation, the cells were transferred and split into 9 wells in 96-well plate with 200 ul of regular culture medium (RPMI 1640 with 10% FCS and 11 mM glucose).
GSIS assays were performed after 48 hours. Prior to the assay, cells were washed once with glucose-free Krebs-Ringer Bicarbonate (KRB) medium and cells were incubated with the KRB medium for another 2 hours. The medium were replaced with fresh KRB supplemented with 2, 8, and 16 mM glucose and the cells were incubated for another 2 hours. Supernatants were taken out at the end of incubation for insulin measurement by Ultrasensitive Rat Insulin ELISA kit (ALPCO, Salem, N.H.).
GSIS assays were performed 48 hours after electroporation. The ratios of insulin concentration measured between 8 mM and 2 mM (G8/G2) and 16 mM and 2 mM (G16/G2) glucose treatments are functional readouts for GSIS. […]

sst3 mRNA = experiment: sst3 knockdown by Taqman real-time PCR; assay type: cell-based, rat; details: 48 hours after siRNA treatment; INS-1 832/13 cells
Procedure: The degree of gene knockdown by the siRNA oligos was quantified by Taqman real-time PCR also at 48 hours after electroporation. The method consistently obtained >70% knockdown of the target genes mRNA. We used PDE3b (phosphodiesterase 3B) and GCK (glucokinase) as two positive controls. As shown in Example 5, Table 6 (infra), compared to control-shocked INS-1 cells (using random sequence siRNA oligos), knocking down PDE3b increased GSIS by 1.5 to 3 fold, consistent with its role in hydrolyzing cAMP, a key positive mediator of GSIS.
The degree of sst3 knockdown was also examined 48 hours after siRNA treatment using Taqman real-time PCR. The rat sst3 specific probes were designed using Primer Express Software (Applied Biosystem) based on SEQ ID NO: 7 (Forward Primer: […] (SEQ ID NO: 15); Reverse Primer: […] (SEQ ID NO: 16); Probe: […] (SEQ ID NO: 17)). We observed about 55-75% reduction of sst3 mRNA in siRNA-treated cells.

Molecule | Effect on GSIS (isolated mouse islets) | Normalized fold of stimulation of GSIS, G8/G2 (INS-1 (832/13) cells; insulin ratio 8 mM/2 mM glucose) | Normalized fold of stimulation of GSIS, G16/G2 (INS-1 (832/13) cells; insulin ratio 16 mM/2 mM glucose) | Reduction of sst3 mRNA (sst3 mRNA)
C[C@@H](O)[C@@H]1NC(=O)[C@H](CCCCN)NC(=O)[C@@H](Cc2c[nH]c3ccccc23)NC(=O)[C@H](Cc2ccccc2)NC(=O)[C@@H](NC(=O)[C@H](N)Cc2ccccc2)CSSC[C@@H](C(=O)N[C@H](CO)[C@@H](C)O)NC1=O [Octreotide] | significantly suppressed |  |  | 
si-SST3: pool of three pairs of siRNA oligos against rat sst3 (SEQ ID NO: 9-14) (nucleic acid, sugars from the 5' end r19 d2, backbone not given here) chain 1: CCUUUCGGCUCUCUCAUGUTT chain 2: GGGUUUGCUGGGCAAUUCATT chain 3: CUGACGAACUCUUCAUGCUTT chain 4: ACAUGAGAGAGCCGAAAGGTT chain 5: UGAAUUGCCCAGCAAACCCTT chain 6: AGCAUGAAGAGUUCGUCAGTT |  | 2.9 and 3 and 2.8 | 4.4 and 2.9 and 2.7 and 4.3 | 55-75%
